Test results reported in publication PMC8149123.

What was measured:
Assay in all cases: mitochondrial relocalisation (mito-tag) assay, fluorescence microscopy; ANRP fused to Tom70-HA and mCherry held at the outer mitochondrial membrane in Drosophila embryos (cells at stage 12); ectopic recruitment of endogenous CRISPR Arp3:GFP scored by colocalisation, Pearson coefficient and GFP:mCherry intensity ratio; the paper says the approach does not differentiate between direct and indirect interactions
[1] = target: UAS:mito:mCherry:Scar (D. melanogaster)
[2] = target: UAS:mito:mCherry:DPod1 (D. melanogaster)
[3] = target: UAS:mito:mCherry:Coronin (D. melanogaster)
[4] = target: UAS:mito:mCherry:Cortactin (D. melanogaster)
UAS:mito:mCherry:Cortactin (D. melanogaster), sequence (main, as listed by the source): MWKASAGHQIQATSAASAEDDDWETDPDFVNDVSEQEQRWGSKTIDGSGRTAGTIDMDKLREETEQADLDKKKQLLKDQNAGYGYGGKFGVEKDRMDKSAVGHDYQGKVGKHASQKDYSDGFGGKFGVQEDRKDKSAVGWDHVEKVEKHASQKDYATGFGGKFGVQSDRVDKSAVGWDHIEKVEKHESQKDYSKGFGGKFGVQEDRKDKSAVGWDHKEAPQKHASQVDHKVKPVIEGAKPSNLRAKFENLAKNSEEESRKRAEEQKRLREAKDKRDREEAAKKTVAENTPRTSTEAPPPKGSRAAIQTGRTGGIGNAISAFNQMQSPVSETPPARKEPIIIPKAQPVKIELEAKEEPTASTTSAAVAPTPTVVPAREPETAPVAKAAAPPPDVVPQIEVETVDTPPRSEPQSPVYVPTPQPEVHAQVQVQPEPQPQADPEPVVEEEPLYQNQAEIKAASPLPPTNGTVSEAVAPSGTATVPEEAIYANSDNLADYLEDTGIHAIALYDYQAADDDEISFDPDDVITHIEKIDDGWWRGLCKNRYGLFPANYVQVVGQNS

CRISPR Arp3:GFP, sequence (P32392 whole entry): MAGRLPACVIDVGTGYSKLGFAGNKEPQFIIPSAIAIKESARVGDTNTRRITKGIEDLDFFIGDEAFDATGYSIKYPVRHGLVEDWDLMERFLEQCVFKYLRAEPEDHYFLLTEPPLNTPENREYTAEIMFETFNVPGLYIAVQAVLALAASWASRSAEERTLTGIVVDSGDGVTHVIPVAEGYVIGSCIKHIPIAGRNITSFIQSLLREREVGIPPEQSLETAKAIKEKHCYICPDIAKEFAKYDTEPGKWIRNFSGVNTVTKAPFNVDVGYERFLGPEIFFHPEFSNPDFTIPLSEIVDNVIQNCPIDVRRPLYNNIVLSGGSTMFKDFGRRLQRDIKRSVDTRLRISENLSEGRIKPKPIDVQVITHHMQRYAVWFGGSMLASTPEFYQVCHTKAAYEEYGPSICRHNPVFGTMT

- Pearson correlation coefficient of colocalisation [1]: 0.313
- percent colocalization [1]: 50%
- Pearson correlation coefficient of colocalisation [2]: 0.625
- Pearson correlation coefficient of colocalisation [3]: 0.234
- Pearson correlation coefficient of colocalisation [4]: 0.492
Substance: CRISPR Arp3:GFP (from UniProt P32392 1-418) (natural protein)
